Results from paper PMC5778499.

Key:
Pit-1ΔN [1] = molecular target: T1, Pit-1ΔN (UniProt P28069 105-291); assay: fluorescence anisotropy
T1 sequence: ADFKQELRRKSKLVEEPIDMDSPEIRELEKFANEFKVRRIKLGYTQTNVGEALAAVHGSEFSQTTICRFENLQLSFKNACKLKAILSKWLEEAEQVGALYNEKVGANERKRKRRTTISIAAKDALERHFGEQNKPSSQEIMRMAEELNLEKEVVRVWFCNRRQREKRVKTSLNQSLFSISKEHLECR

Pit-1wt [2] = molecular target: T2, Pit-1wt (UniProt P28069 1-291); assay: EMSA
T2 sequence: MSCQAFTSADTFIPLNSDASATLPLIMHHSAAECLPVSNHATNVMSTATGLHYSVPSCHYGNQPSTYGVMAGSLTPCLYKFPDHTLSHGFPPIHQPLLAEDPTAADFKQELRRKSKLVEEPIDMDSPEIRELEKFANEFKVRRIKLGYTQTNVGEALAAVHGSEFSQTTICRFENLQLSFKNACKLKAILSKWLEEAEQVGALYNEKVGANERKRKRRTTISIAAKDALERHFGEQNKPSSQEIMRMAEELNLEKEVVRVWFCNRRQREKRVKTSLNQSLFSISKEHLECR

UHRF1 = molecular target: T3, UHRF1 (UniProt Q96T88 1-793); assay: EMSA
T3 sequence: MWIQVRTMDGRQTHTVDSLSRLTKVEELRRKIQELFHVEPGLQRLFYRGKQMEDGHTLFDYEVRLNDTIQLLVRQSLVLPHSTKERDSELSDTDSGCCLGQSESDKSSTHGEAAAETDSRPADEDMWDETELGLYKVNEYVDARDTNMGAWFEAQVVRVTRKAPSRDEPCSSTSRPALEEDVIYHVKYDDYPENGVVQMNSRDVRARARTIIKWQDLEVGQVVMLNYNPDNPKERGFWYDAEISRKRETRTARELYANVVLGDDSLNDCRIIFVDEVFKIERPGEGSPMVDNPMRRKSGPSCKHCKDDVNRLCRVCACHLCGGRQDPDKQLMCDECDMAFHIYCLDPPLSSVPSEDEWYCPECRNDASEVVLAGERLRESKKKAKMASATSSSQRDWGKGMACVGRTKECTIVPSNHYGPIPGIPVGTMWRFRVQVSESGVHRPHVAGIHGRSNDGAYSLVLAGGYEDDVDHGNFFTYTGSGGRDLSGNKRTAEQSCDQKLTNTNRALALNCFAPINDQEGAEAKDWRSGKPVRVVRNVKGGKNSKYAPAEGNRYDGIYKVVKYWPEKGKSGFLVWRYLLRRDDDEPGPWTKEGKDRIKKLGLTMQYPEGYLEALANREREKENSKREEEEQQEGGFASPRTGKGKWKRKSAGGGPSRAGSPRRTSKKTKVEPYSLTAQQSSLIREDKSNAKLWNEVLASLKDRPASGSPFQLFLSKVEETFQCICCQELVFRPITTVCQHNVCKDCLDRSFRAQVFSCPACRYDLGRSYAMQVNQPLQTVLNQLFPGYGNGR

Pit-1ΔN [3] = molecular target: T1, Pit-1ΔN; assay: competition
Pit-1wt [4] = molecular target: T2, Pit-1wt; assay: fluorescence anisotropy
Pit-1ΔN [5] = molecular target: T1, Pit-1ΔN; assay: fluorescence anisotropy; remark: listed apart in the source
Pit-1ΔN [6] = molecular target: T1, Pit-1ΔN; assay: competition; remark: listed apart in the source
Pit-1ΔNΔC = molecular target: T4, Pit-1ΔNΔC (UniProt P28069 124-273); assay: gel filtration
T4 sequence: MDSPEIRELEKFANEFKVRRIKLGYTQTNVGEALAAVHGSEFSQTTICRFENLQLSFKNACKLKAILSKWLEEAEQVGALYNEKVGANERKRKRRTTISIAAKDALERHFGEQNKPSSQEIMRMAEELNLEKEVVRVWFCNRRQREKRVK

Pit-1ΔN [7] = molecular target: T1, Pit-1ΔN; assay: competition; remark: listed apart in the source

B1: f4x (dsDNA)
DNA 1: CACCCATTCATTCATTCATTCAG
DNA 2: CTGAATGAATGAATGAATGGGTG
binding result (Pit-1ΔN [1]): binds

B2: 8xCATT 111 biotin (dsDNA)
DNA 1: TGTCCTCTTCCTGCTATGTCATGGCTTATCTTCTTTCACCCATTCATTCATTCATTCATTCATTCATTCATTCAGCAGTATTAGTCAATGTCTCTTGTATGCCTGGCACCT
DNA 2: AGGTGCCAGGCATACAAGAGACATTGACTAATACTGCTGAATGAATGAATGAATGAATGAATGAATGAATGGGTGAAAGAAGATAAGCCATGACATAGCAGGAAGAGGACA
binding result (Pit-1wt [2]): binds | Kd (UHRF1): > 1000 nM

B3: u8x111 (dsDNA)
DNA 1: TGTCCTCTTCCTGCTATGTCATGGCTTATCTTCTTTCACCCATTCATTCATTCATTCATTCATTCATTCATTCAGCAGTATTAGTCAATGTCTCTTGTATGCCTGGCACCT
DNA 2: AGGTGCCAGGCATACAAGAGACATTGACTAATACTGCTGAATGAATGAATGAATGAATGAATGAATGAATGGGTGAAAGAAGATAAGCCATGACATAGCAGGAAGAGGACA
binding result (Pit-1ΔN [3]): binds

B4: f8x (dsDNA)
DNA 1: CACCCATTCATTCATTCATTCATTCATTCATTCATTCAG
DNA 2: CTGAATGAATGAATGAATGAATGAATGAATGAATGGGTG
Kd (Pit-1wt [4]): 35 nM | Kd (Pit-1ΔN [5]): 27 nM

B5: uhGH (dsDNA)
DNA 1: GAGGAGCTTCTAAATTATCCATTAGCACAAGCCCGTCAGTGGCCCCATGCATAAATGTACACAGAAACAG
DNA 2: CTGTTTCTGTGTACATTTATGCATGGGGCCACTGACGGGCTTGTGCTAATGGATAATTTAGAAGCTCCTC
binding result (Pit-1ΔN [6]): binds

B6: 4xCATT crystallization duplex (f4xCrystF/f4xCrystRC) (dsDNA)
DNA 1: CCATTCATTCATTCATTCGGA
DNA 2: CCGAATGAATGAATGAATGGT
binding result (Pit-1ΔNΔC): binds

B7: u5x99 (dsDNA)
DNA 1: TGTCCTCTTCCTGCTATGTCATGGCTTATCTTCTTTCACCCATTCATTCATTCATTCATTCAGCAGTATTAGTCAATGTCTCTTGTATGCCTGGCACCT
DNA 2: AGGTGCCAGGCATACAAGAGACATTGACTAATACTGCTGAATGAATGAATGAATGAATGGGTGAAAGAAGATAAGCCATGACATAGCAGGAAGAGGACA
binding result (Pit-1ΔN [3]): binds

B8: u4x (4xCATT) (dsDNA)
DNA 1: CACCCATTCATTCATTCATTCAG
DNA 2: CTGAATGAATGAATGAATGGGTG
binding result (Pit-1ΔN [7]): binds

B9: f0x (dsDNA)
DNA 1: TGTCCTCTTCCTGCTATGTCATGGCTTATCTTCTTTCACCCAGCAGTATTAGTCAATGTCTCTTGTATGCCTGGCACCT
DNA 2: AGGTGCCAGGCATACAAGAGACATTGACTAATACTGCTGGGTGAAAGAAGATAAGCCATGACATAGCAGGAAGAGGACA
Kd (Pit-1wt [4]): 167 nM
